{
  "source": "paper PMC3725403",
  "biological_target": "Arg224 (UniProt position 224, YHALYRYFVEL)",
  "experiment": "electrophysiology",
  "data": [
    {"substance": "TASK-2 (K2P5.1) two-pore domain K+ channel (Mus musculus)", "values": [
      {"measurement": "pKa", "setting": "bath: 135 mM sodium gluconate, 1 mM potassium gluconate, 4 mM KCl, 2 mM CaCl2, 1 mM MgCl2, 105 mM sucrose, pipette: 8 mM KCl, 132 mM potassium gluconate, 1 mM MgCl2, 10 mM EGTA, 1 mM Na3ATP, 0.1 mM GT, 10 mM HEPES/Tris, 0 mV value from a fit across voltages, [K+]i/[K+]o 140/5 mM, intracellular pH 7.4", "value": 8.37},
      {"measurement": "pKa", "setting": "bath: 135 mM sodium gluconate, 1 mM potassium gluconate, 4 mM KCl, 2 mM CaCl2, 1 mM MgCl2, 105 mM sucrose, pipette: 8 mM KCl, 132 mM potassium gluconate, 1 mM MgCl2, 10 mM EGTA, 1 mM Na3ATP, 0.1 mM GT, 10 mM HEPES/Tris, membrane potential +60 mV, [K+]i/[K+]o 140/5 mM, intracellular pH 7.4", "value": 8.15},
      {"measurement": "pKa", "setting": "bath: 135 mM sodium gluconate, 1 mM potassium gluconate, 4 mM KCl, 2 mM CaCl2, 1 mM MgCl2, 105 mM sucrose, pipette: 8 mM KCl, 132 mM potassium gluconate, 1 mM MgCl2, 10 mM EGTA, 1 mM Na3ATP, 0.1 mM GT, 10 mM HEPES/Tris, membrane potential -120 mV, [K+]i/[K+]o 140/5 mM, intracellular pH 7.4", "value": 8.76},
      {"measurement": "pKa", "setting": "not stated, most extracellular Cl- replaced by sulphate, extracellular solution with most Cl- replaced by sulphate, voltage not stated, cited from earlier work", "value": 8.0}
    ]}
  ]
}
